Laboratory results from paper PMC9651861 (2022).

B1: DesAb-HSA-P1, C-terminal cysteine variant labelled with Alexa Fluor 647 (VHH)
VHH: EVQLEESGGGLVQPGGSLRLSCAASGFNIKDTYIGWVRQAPGKGEEWVASIYPTSGYTRYADSVKGRFTISADTSKNTAYLQMNSLRAEDTAVYYCAAGSIQKSLQTAESILEEFDYWGQGTLVTVSS
modifications: Alexa Fluor 647 (maleimide) on the free C-terminal cysteine of the Asp-Cys-Glu motif
B2: DesAb-HSA-P1 (VHH)
VHH: B1 VHH
B3: DesAb-HSA-D3, C-terminal cysteine variant labelled with Alexa Fluor 647 (VHH)
VHH: EVQLQESGGGLVQAGGSLRLSCAASGELYALISMGWFRQAPGKEREFVAAISRNGDNTYYTDSVKGRFTISRDNAKNTVELQMNSLKPEDTAVYYCAADKFASPDGSVTIMTNEYDYWGQGTQVTVSD
modifications: Alexa Fluor 647 (maleimide) on the free C-terminal cysteine of the Asp-Cys-Glu motif
B4: DesAb-HSA-D3 (VHH)
VHH: B3 VHH
B5: Nb.B201 (VHH)
VHH: QVQLQESGGGLVQAGGSLRLSCAASGYISDAYYMGWYRQAPGKEREFVATITHGTNTYYADSVKGRFTISRDNAKNTVYLQMNSLKPEDTAVYYCAVLETRSYSFRYWGQGTQVTVSS
B6: DesAb-HSA-P2 (VHH)
VHH: EVQLEESGGGLVQPGGSLRLSCAASGFNIKDTYIGWVRQAPGKGEEWVASIYPTSGYTRYADSVKGRFTISADTSKNTAYLQMNSLRAEDTAVYYCAAGSAQAGNAEEAEEEFDYWGQGTLVTVSS
B7: DesAb-HSA-P2, C-terminal cysteine variant labelled with Alexa Fluor 647 (VHH)
VHH: B6 VHH
modifications: Alexa Fluor 647 (maleimide) on the free C-terminal cysteine of the Asp-Cys-Glu motif

Key:
human serum albumin [1] = biological target: T1, human serum albumin (human, UniProt P02768 25-609); test: MST
human serum albumin [2] = biological target: T1, human serum albumin; test: BLI
human serum albumin [3] = biological target: T1, human serum albumin; test: BLI; remark: listed apart in the source

Binder | Kd (human serum albumin [1]) [nM] | Kd (human serum albumin [2]) [nM] | also measured
B1 | 140 |  | 
B2 |  | 279 | 
B3 | 146 |  | 
B4 |  | 308 | 
B5 |  |  | Kd (human serum albumin [3]): ~370 nM
B6 |  | 412 | 
B7 | 810 |  | 
